Measured values from paper PMC2120956.

Key:
[1] = biological target: embryonic breast muscle myosin isolated from d15 chick embryos (chicken) (UniProt P02565)
[2] = biological target: embryonic myosin isolated from primary culture myotubes (chicken) (UniProt P02565)

actin filament velocity, in vitro motility assay [1]: 3.8 um/s
actin filament velocity, in vitro motility assay [2]: 3.1 um/s
Substance: F-actin (from UniProt P68139 1-377) (natural protein)
